{"source": "paper PMC3433420", "origin": "cited, not measured here", "settings_in_all_cases": "cited from earlier work", "key": {"[1]": {"molecular_target": "SYK-NC (Homo sapiens) (UniProt P43405)"}, "[2]": {"molecular_target": "SYK-NC (Homo sapiens) (UniProt P43405)", "remark": "listed apart in the source"}, "[3]": {"molecular_target": "GRB7 (Homo sapiens) (UniProt Q14451)", "sequence (Q14451 426-532)": "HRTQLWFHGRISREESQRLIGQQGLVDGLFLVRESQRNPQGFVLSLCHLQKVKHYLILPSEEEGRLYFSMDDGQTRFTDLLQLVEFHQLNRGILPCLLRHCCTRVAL"}, "[4]": {"molecular_target": "GRB7 (Homo sapiens) (UniProt Q14451)", "remark": "listed apart in the source"}, "[5]": {"molecular_target": "PIK3R1-N (Homo sapiens) (UniProt P27986)", "sequence (P27986 328-723)": "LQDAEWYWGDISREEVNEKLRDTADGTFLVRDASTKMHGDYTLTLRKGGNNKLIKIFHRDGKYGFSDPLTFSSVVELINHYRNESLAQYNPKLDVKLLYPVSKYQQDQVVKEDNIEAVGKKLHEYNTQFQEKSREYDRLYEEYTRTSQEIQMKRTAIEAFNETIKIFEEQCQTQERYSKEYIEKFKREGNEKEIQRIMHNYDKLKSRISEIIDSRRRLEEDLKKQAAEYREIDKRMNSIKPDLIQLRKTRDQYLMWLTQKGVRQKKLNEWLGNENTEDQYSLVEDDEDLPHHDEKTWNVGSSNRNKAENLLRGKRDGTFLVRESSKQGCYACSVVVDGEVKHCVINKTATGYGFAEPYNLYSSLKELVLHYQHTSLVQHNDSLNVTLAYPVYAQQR"}, "[6]": {"molecular_target": "PIK3R1-N (Homo sapiens) (UniProt P27986)", "remark": "listed apart in the source"}, "[7]": {"molecular_target": "BLK (Homo sapiens) (UniProt P51451)", "sequence (P51451 119-225)": "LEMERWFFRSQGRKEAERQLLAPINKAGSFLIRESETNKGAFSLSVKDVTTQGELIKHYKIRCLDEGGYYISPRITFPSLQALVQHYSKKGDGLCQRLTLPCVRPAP"}, "[8]": {"molecular_target": "ITK (Homo sapiens) (UniProt Q08881)", "sequence (Q08881 234-343)": "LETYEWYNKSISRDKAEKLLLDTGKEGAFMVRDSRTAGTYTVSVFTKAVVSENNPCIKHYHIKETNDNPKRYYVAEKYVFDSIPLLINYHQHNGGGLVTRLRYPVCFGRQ"}, "[9]": {"molecular_target": "ABL2 (Homo sapiens) (UniProt P42684)", "sequence (P42684 168-268)": "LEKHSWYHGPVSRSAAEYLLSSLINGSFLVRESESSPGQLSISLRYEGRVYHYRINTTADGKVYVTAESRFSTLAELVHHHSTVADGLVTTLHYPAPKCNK"}, "[10]": {"molecular_target": "PLCG2-NC (Homo sapiens) (UniProt P16885)", "sequence (P16885 527-740)": "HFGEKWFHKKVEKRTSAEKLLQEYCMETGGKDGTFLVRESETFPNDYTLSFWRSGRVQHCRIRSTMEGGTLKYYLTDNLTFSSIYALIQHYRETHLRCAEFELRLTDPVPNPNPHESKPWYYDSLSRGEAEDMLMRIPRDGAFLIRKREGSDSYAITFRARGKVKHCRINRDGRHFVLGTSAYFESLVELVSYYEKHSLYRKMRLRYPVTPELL"}, "[11]": {"molecular_target": "PIK3R3-NC (Homo sapiens) (UniProt Q92569)"}, "[12]": {"molecular_target": "PIK3R3-NC (Homo sapiens) (UniProt Q92569)", "remark": "listed apart in the source"}, "[13]": {"molecular_target": "LYN (Homo sapiens) (UniProt P07948)", "sequence (P07948 124-231)": "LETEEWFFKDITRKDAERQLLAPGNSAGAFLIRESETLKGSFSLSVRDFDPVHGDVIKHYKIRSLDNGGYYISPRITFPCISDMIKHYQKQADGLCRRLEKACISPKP"}, "[14]": {"molecular_target": "FGR (Homo sapiens) (UniProt P09769)"}, "[15]": {"molecular_target": "RASA1-N (Homo sapiens) (UniProt P20936)", "sequence (P20936 176-446)": "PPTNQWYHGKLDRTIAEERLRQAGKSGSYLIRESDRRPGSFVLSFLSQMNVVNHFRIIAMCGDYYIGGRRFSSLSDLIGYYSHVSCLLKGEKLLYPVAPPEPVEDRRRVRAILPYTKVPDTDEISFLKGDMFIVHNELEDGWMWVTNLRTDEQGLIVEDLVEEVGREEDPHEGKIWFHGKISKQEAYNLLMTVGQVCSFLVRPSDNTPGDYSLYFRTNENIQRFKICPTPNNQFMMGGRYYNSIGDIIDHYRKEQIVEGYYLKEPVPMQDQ"}, "[16]": {"molecular_target": "RASA1-N (Homo sapiens) (UniProt P20936)", "remark": "listed apart in the source"}, "[17]": {"molecular_target": "TENC1 (Homo sapiens) (UniProt Q63HR2)", "sequence (Q63HR2 1135-1252)": "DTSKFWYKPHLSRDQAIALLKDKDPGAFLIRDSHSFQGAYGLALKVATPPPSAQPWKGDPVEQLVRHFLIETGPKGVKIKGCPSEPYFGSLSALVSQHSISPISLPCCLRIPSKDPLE"}, "[18]": {"molecular_target": "TENC1 (Homo sapiens) (UniProt Q63HR2)", "remark": "listed apart in the source"}, "[19]": {"molecular_target": "PIK3R1-NC (Homo sapiens) (UniProt P27986)", "sequence (P27986 328-723)": "as the sequence (P27986 328-723) above"}, "[20]": {"molecular_target": "PIK3R1-NC (Homo sapiens) (UniProt P27986)", "remark": "listed apart in the source"}, "[21]": {"molecular_target": "ABL1 (Homo sapiens) (UniProt P00519)", "sequence (P00519 122-222)": "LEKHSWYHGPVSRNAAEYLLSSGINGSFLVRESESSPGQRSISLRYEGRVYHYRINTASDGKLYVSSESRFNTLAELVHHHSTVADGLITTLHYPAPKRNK"}, "[22]": {"molecular_target": "PIK3R3-N (Homo sapiens) (UniProt Q92569)"}, "[23]": {"molecular_target": "PIK3R3-N (Homo sapiens) (UniProt Q92569)", "remark": "listed apart in the source"}, "[24]": {"molecular_target": "SRC (Homo sapiens) (UniProt P12931)"}, "[25]": {"molecular_target": "PIK3R2-NC (Homo sapiens) (UniProt O00459)", "sequence (O00459 325-721)": "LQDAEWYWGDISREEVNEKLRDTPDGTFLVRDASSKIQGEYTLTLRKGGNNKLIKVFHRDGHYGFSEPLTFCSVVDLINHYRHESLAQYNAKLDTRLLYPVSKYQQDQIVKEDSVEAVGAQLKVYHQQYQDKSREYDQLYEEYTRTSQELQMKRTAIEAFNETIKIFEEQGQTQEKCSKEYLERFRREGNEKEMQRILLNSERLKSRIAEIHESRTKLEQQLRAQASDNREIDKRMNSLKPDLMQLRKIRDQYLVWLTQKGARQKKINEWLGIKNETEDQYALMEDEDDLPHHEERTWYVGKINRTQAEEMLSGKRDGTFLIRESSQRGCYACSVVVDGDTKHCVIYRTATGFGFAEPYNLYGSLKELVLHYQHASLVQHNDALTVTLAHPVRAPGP"}, "[26]": {"molecular_target": "PIK3R2-NC (Homo sapiens) (UniProt O00459)", "remark": "listed apart in the source"}, "[27]": {"molecular_target": "YES1 (Homo sapiens) (UniProt P07947)", "sequence (P07947 153-260)": "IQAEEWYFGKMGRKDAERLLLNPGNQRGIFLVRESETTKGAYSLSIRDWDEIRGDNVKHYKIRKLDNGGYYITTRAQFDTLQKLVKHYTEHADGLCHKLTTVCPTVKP"}, "[28]": {"molecular_target": "PIK3R2-N (Homo sapiens) (UniProt O00459)", "sequence (O00459 325-721)": "as the sequence (O00459 325-721) above"}, "[29]": {"molecular_target": "PIK3R2-N (Homo sapiens) (UniProt O00459)", "remark": "listed apart in the source"}, "[30]": {"molecular_target": "SYK-C (Homo sapiens) (UniProt P43405)"}, "[31]": {"molecular_target": "PIK3R1-N (Homo sapiens) (UniProt P27986)", "remark": "listed apart in the source"}, "[32]": {"molecular_target": "ITK (Homo sapiens) (UniProt Q08881)", "remark": "listed apart in the source"}, "[33]": {"molecular_target": "ABL2 (Homo sapiens) (UniProt P42684)", "remark": "listed apart in the source"}, "[34]": {"molecular_target": "ABL2 (Homo sapiens) (UniProt P42684)", "remark": "listed apart in the source"}, "[35]": {"molecular_target": "PIK3R3-NC (Homo sapiens) (UniProt Q92569)", "remark": "listed apart in the source"}, "[36]": {"molecular_target": "PIK3R3-NC (Homo sapiens) (UniProt Q92569)", "remark": "listed apart in the source"}, "[37]": {"molecular_target": "SHF (Homo sapiens) (UniProt Q7M4L6)", "sequence (Q7M4L6 318-423)": "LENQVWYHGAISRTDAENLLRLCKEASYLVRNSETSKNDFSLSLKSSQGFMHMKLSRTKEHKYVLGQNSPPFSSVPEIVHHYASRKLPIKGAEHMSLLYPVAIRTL"}, "[38]": {"molecular_target": "PIK3R1-NC (Homo sapiens) (UniProt P27986)", "remark": "listed apart in the source"}, "[39]": {"molecular_target": "PIK3R1-NC (Homo sapiens) (UniProt P27986)", "remark": "listed apart in the source"}, "[40]": {"molecular_target": "PIK3R1-C (Homo sapiens) (UniProt P27986)", "sequence (P27986 328-723)": "as the sequence (P27986 328-723) above"}, "[41]": {"molecular_target": "PIK3R3-N (Homo sapiens) (UniProt Q92569)", "remark": "listed apart in the source"}, "[42]": {"molecular_target": "PIK3R3-N (Homo sapiens) (UniProt Q92569)", "remark": "listed apart in the source"}, "[43]": {"molecular_target": "PIK3R2-NC (Homo sapiens) (UniProt O00459)", "remark": "listed apart in the source"}, "[44]": {"molecular_target": "SHC1-PTB (Homo sapiens) (UniProt P29353)", "sequence (P29353 483-583)": "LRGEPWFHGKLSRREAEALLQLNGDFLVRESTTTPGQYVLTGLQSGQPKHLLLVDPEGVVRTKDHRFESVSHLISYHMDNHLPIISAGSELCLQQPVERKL"}, "[45]": {"molecular_target": "SHB (Homo sapiens) (UniProt Q15464)", "sequence (Q15464 405-509)": "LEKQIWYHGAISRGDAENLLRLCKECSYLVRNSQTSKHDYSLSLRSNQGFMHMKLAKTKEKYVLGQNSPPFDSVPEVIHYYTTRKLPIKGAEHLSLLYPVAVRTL"}, "[46]": {"molecular_target": "PIK3R2-N (Homo sapiens) (UniProt O00459)", "remark": "listed apart in the source"}, "[47]": {"molecular_target": "PIK3R2-N (Homo sapiens) (UniProt O00459)", "remark": "listed apart in the source"}, "[48]": {"molecular_target": "PIK3R3-C (Homo sapiens) (UniProt Q92569)"}}, "note": "Like-named read-outs stand apart in the source and are kept apart here."}
{"substance": "…pYEYMNRRR", "values": [{"measurement": "apparent Kd (screen)", "setting": "[1]", "result": 894, "unit": "nM"}, {"measurement": "apparent Kd (screen)", "setting": "[2]", "result": 1260, "unit": "nM"}, {"measurement": "apparent Kd (screen)", "setting": "[3]", "result": 125, "unit": "nM"}, {"measurement": "apparent Kd (screen)", "setting": "[4]", "result": 99, "unit": "nM"}, {"measurement": "apparent Kd (screen)", "setting": "[5]", "result": 347, "unit": "nM"}, {"measurement": "apparent Kd (screen)", "setting": "[6]", "result": 674, "unit": "nM"}, {"measurement": "apparent Kd (screen)", "setting": "[7]", "result": 68, "unit": "nM"}, {"measurement": "apparent Kd (screen)", "setting": "[8]", "result": 155, "unit": "nM"}, {"measurement": "apparent Kd (screen)", "setting": "[9]", "result": 1110, "unit": "nM"}, {"measurement": "apparent Kd (screen)", "setting": "[10]", "result": 614, "unit": "nM"}, {"measurement": "apparent Kd (screen)", "setting": "[11]", "result": 256, "unit": "nM"}, {"measurement": "apparent Kd (screen)", "setting": "[12]", "result": 499, "unit": "nM"}, {"measurement": "apparent Kd (screen)", "setting": "[13]", "result": 1070, "unit": "nM"}, {"measurement": "apparent Kd (screen)", "setting": "[14]", "result": 709, "unit": "nM"}, {"measurement": "apparent Kd (screen)", "setting": "[15]", "result": 516, "unit": "nM"}, {"measurement": "apparent Kd (screen)", "setting": "[16]", "result": 929, "unit": "nM"}, {"measurement": "apparent Kd (screen)", "setting": "[17]", "result": 1800, "unit": "nM"}, {"measurement": "apparent Kd (screen)", "setting": "[18]", "result": 1630, "unit": "nM"}, {"measurement": "apparent Kd (screen)", "setting": "[19]", "result": 254, "unit": "nM"}, {"measurement": "apparent Kd (screen)", "setting": "[20]", "result": 499, "unit": "nM"}, {"measurement": "apparent Kd (screen)", "setting": "[21]", "result": 1420, "unit": "nM"}, {"measurement": "apparent Kd (screen)", "setting": "[22]", "result": 201, "unit": "nM"}, {"measurement": "apparent Kd (screen)", "setting": "[23]", "result": 281, "unit": "nM"}, {"measurement": "apparent Kd (screen)", "setting": "[24]", "result": 866, "unit": "nM"}, {"measurement": "apparent Kd (screen)", "setting": "[25]", "result": 257, "unit": "nM"}, {"measurement": "apparent Kd (screen)", "setting": "[26]", "result": 448, "unit": "nM"}, {"measurement": "apparent Kd (screen)", "setting": "[27]", "result": 125, "unit": "nM"}, {"measurement": "apparent Kd (screen)", "setting": "[28]", "result": 143, "unit": "nM"}, {"measurement": "apparent Kd (screen)", "setting": "[29]", "result": 239, "unit": "nM"}]}
{"substance": "…pYMPMNQGN", "values": [{"measurement": "apparent Kd (screen)", "setting": "[30]", "result": 1180, "unit": "nM"}, {"measurement": "apparent Kd (screen)", "setting": "[31]", "result": 566, "unit": "nM"}, {"measurement": "apparent Kd (screen)", "setting": "[32]", "result": 1670, "unit": "nM"}, {"measurement": "apparent Kd (screen)", "setting": "[33]", "result": 331, "unit": "nM"}, {"measurement": "apparent Kd (screen)", "setting": "[34]", "result": 167, "unit": "nM"}, {"measurement": "apparent Kd (screen)", "setting": "[35]", "result": 492, "unit": "nM"}, {"measurement": "apparent Kd (screen)", "setting": "[36]", "result": 50, "unit": "nM"}, {"measurement": "apparent Kd (screen)", "setting": "[37]", "result": 1230, "unit": "nM"}, {"measurement": "apparent Kd (screen)", "setting": "[38]", "result": 920, "unit": "nM"}, {"measurement": "apparent Kd (screen)", "setting": "[39]", "result": 105, "unit": "nM"}, {"measurement": "apparent Kd (screen)", "setting": "[40]", "result": 999, "unit": "nM"}, {"measurement": "apparent Kd (screen)", "setting": "[41]", "result": 1320, "unit": "nM"}, {"measurement": "apparent Kd (screen)", "setting": "[42]", "result": 999, "unit": "nM"}, {"measurement": "apparent Kd (screen)", "setting": "[43]", "result": 88, "unit": "nM"}, {"measurement": "apparent Kd (screen)", "setting": "[44]", "result": 2000, "unit": "nM"}, {"measurement": "apparent Kd (screen)", "setting": "[45]", "result": 1370, "unit": "nM"}, {"measurement": "apparent Kd (screen)", "setting": "[46]", "result": 893, "unit": "nM"}, {"measurement": "apparent Kd (screen)", "setting": "[47]", "result": 999, "unit": "nM"}, {"measurement": "apparent Kd (screen)", "setting": "[48]", "result": 109, "unit": "nM"}]}
